According to publication PMC2827695 (Journal of the American Society for Mass Spectrometry, 2009):

Target: T1, IFNAR1 (UniProt P17181 28-436)
T1 sequence (looked up): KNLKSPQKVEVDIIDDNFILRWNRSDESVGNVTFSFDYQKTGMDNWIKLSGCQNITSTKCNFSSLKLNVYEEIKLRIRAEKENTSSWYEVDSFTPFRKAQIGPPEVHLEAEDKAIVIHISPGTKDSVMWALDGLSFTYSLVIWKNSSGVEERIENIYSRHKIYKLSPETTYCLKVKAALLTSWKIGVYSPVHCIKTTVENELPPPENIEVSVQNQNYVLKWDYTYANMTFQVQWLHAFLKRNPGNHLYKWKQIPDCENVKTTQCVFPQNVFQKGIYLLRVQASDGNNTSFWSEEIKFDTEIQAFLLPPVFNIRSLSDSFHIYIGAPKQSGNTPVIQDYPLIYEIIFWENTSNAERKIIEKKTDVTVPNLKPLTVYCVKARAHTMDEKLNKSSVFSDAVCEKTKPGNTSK
Test: native MS

B1: Interferon-β1a (ligand, UniProt P01574 22-187, looked up)
chain: MSYNLLGFLQRSSNFQCQKLLWQLNGRLEYCLKDRMNFDIPEEIKQLQQFQKEDAALTIYEMLQNIFAIFRQDSSSTGWNETIVENLLANVYHQINHLKTVLEEKLEKEDFTRGKLMSSLHLKRYYGRILHYLKAKEYSHCAWTIVRVEILRNFYFINRLTGYLRN
modifications: glycoprotein with a carbohydrate chain, several glycoforms (glycosylation site printed as Asn-90)
  stoichiometry N: 1
